Several values for one entry are separate records, joined by “and”; a condition that tells them apart may be missing. Equal entries are not always repeated.
Experiments:
Assay in all cases: native gel or EMSA; 1 ug of each purified consensus Env gp140 on a NativePAGE native gel, silver stained
[1] = biological target: Consensus B Env gp140 trimer (bacteriophage)
[2] = biological target: Con M Env gp140 trimer (HIV-1 group M consensus) (bacteriophage)
[3] = biological target: Consensus A Env gp140 trimer (bacteriophage)
[4] = biological target: Consensus E Env gp140 trimer (bacteriophage)
[5] = biological target: Consensus C Env gp140 trimer (bacteriophage)

## Consensus B Env gp140 trimer
[1]
  stoichiometry N: 3

## Con M Env gp140 trimer (HIV-1 group M consensus)
[2]
  stoichiometry N: 3 and 2

## Consensus A Env gp140 trimer
[3]
  stoichiometry N: 3

## Consensus E Env gp140 trimer
[4]
  stoichiometry N: 3 and 2

## Consensus C Env gp140 trimer
[5]
  stoichiometry N: 3 and 2
